In a protein production outcome set (Wang et al. 2014):

Assay: label from the status in PepcDB records

Sequence | protein production
MTSVESTAHIEKRFIELKNIWFIIASLCYVAAIGFIIAYFVGGYSPYISIAVMWGCIGSLDMILGILRRKKEK | failed
MPLVLHHPERQAELGSGLRDGGGAALRPPGRLVKQMDFTEAYADTCSTVGLAAREGNVKVLRKLLKKGRSVDVADNRGWMPIHEAAYHNSVECLQMLINADSSENYIKMKTFEGFCALHLAASQGHWKIVQILLEAGADPNATTLEETTPLFLAVENGQIDVLRLLLQHGANVNGSHSMCGWNSLHQASFQENAEIIKLLLRKGANKECQDDFGITPLFVAAQYGKLESLSILISSGANVNCQALDKATPLFIAAQEGHTKCVELLLSSGADPDLYCNEDSWQLPIHAAAQMGHTKILDLLIPLTNRACDTGLNKVSPVYSAVFGGHEDCLEILLRNGYSPDAQACLVFGFSSPVCMAFQKDCEFFGIVNILLKYGAQINELHLAYCLKYEKFSIFRYFLRKGCSLGPWNHIYEFVNHAIKAQAKYKEWLPHLLVAGFDPLILLCNSWIDSVSIDTLIFTLEFTNWKTLAPAVERMLSARASNAWILQQHIATVPSLTHLCRLEIRSSLKSERLRSDSYISQLPLPRSLHNYLLYEDVLRMYEVPELAAIQDG | failed
MTHVTLRSEFETLIDPYAPVAQVGTGFDFTEGPIWHPIDHYLLFSDMPGDVRRRWDARRGMAEVKRPSNKCNGMTYDAELNLIVCEHATSSLIRERPDGRREVLASHFGGQELNSPNDVCVHSSGAIYFSDPWYGRMPVYGVERPRQLGFQGVYRVMPGGEPKLVVDRNLFDQPNGLCFSPDERLLYVNDTVQALIRVFDVNADGTLSNARVFASSIKSELEPGLPDGMKCDQHGNVWVTAPGGVWVYSPRGELLGKVRVPELVANLAWGGPDFRTLYLTSTHSVYAIPTRVGPRHEPYMSGRRGGAGASAGPAAAAPILTDGEMRLDPQRCAMIIQDLQNDVIMDGGAFDGSGAPAHAKQQHVVENVRRLAEAARARGVAIIHVWFVVEPGAPGVTLNAPLFEGLVDSKAMVRGSWGAAPVSGLEPRPGDFVVEKMRMSAWEGTRLETILKATGRDMIINTGAWTNMSVEHTARTGADKGYFMIVPEDCCSTMNADWHSASINFAMQNVAIVTRADAVIRALGLEHHHHHH | failed
MSDIQVRHVEADKQFVIAVDGEDAGFAGYAERDGHRNFNHTVIDPRFRGQGLSQPLIQQALEATHADGLGVIATCSAVVGFVQKNPEFRDYLA | failed
MMVGLINAIPVANKDEYKNVGVYIEHRGDEIKRSSLEMIGIGKQLARKINEKLLCVVIGDKVDGIAKEVGEYGCDIVLAAESPDLAEYRTMPYAQIIGDYIAEYKPNIFLLAATRNGRDLASRIAVKERTGITADCTVLDVDENRTLLANRPTYGESTLAEILCRNHRPQMATARPGTFTPAEKEKDHKYEIVKKKVNVDKNMLKKQIIKFIPKKATDLTAAKIVVAGGLGLGGPDGFKLLQDLADLIGGAVGSSRPPVDLGWITRDHQVGQTGQAVRPDLYVAVGISGKPQHVAGMKFSKVIISINKDPNAEINKISDYIIVEDYRKAVPALIDAIKNFGKQKVAEAQKA | failed
MTSLPQISTLMREKSVENKLKVKAKDDHMVPSGLYEVRAIQLPGGSWRHYYVDHSSKETYWILPYSHPDGASSHPLEKLPVYLPSYEECVDETNPLAVPEVCSPARD | not failed
MSSTILVLGATGTVGRHVVDGLLAKGEAVKAASRAGKPVAAAEGVAFDYARPETFGPALEGVDRAYVLLASGYVDSKGLLLPVIEAAATRKVKVVLQSVIGVDADDSIPYRQVEIALEKSDTPYVILRPNWFSDNFHTFWKPGIDHGQIALPAAEGKSSFIDARDIAASGVAVLTSSSFDGKAFNLTGPEALSYAEAAAILSEAIGKPVTYNAVSDEAFIEMLTGAGVPAGYASFLASIFYPVRQNWTAVMTGDVETLTGKAPRSLKTYAADYAAALKA | failed
MINFEATELRLGLPGGNHGGEMAGKNNGKRGFSETVDLKLNLSSTAMDSVSKVDLENMKEKVVKPPAKAQVVGWPPVRSFRKNVMSGQKPTTGDATEGNDKTSGSSGATSSASACATVAYVKVSMDGAPYLRKIDLKLYKTYQDLSNALSKMFSSFTIGNYGPQGMKDFMNESKLIDLLNGSDYVPTYEDKDGDWMLVGDVPWEMFVDSCKRIRIMKGSEAIGLAPRALEKCKNRS | failed
MGGDKIDLYKRFSILFCTIFLLLILQGTVAAESNYTVDYSTYLGDKVVDEARDVYVDDSGYIYVTGSTHVNGSKDVFVTKFNVTREVIYHTILTDTSGDDWGHRIVADGDGYAYVVGEINHDGLKVADAFISKIDPSGKEVKRVYIGGSGYDVAKGLAIDYEGNIYVSGYTISTVLNVSELGGGTARVPGTNPNATPLTDWTYHGGYDAFLARFDQDLNPVNLRYFGGSWDDYCQGIAIDYAGNIYITGYTYSDDFPVTFDAISGDKRGTTDIFLSRFTPDLNCDYSTYLGGSGPDFCYSIISRDSRIYLAGKTNSSDFPVTPNAYQKTRNGSSDGFIMVFNDYSVEYSTYLGGRGDDSINDITQDILGNLYLTGWTGSDNFPLTPGAYDSSLSGVDAFVMKFSIPKGVLYSSYLGGIEADQGYGVAVDRYQNIYVAGKTWSSNFTVTPDACKKNLTGLSDGFLTRFTPFIISNISVTPLNGTGPLTVTLRGNITNCGDSTGWYRLDLYINGYRTAGKWVEVGSLETEPFEFEYTLRNSRAYSVGVNNFPPATVRVFLGPLIIPENLRVTPSGGQEPLKVNVTADLVNYGDLPDSYTAELYIDGVLLDSRNVTVNASSRTTVSFNRTLAAGLYEITINDLEPELVYVMEGEKFYIENFTLTPQSGAAPLTVTVSAMITNIDSNPRSYTATIYVNGVPDHTKVLNIPGESTVPFSTSILLPDRGLYTISLNNNVSGTVRVLSEANFTLSNVTVSPVEGKSPLNVTVTAIVRNNGDLAGDFAVTLYLDDVAWETRTVSVPGKSSVLVSFKKELAFPGEYRLRLNSGTDVTIRVLEPDPTITGFNVTPVTGPAPLSVRASLNVTNPHDLVIGFTARLMVDGVVVQENIVSLSPGETREIAMGTLLTPGNHTVGINEFSKIVRVLRPASITLSDLRVTPSSGFSPLTITATATARNTGEVDGNYTAVLYINGLAVDEKNVTVGAGRSVQVAFNHTIENAGIYLAGIGSLTPLDVRVLSEPAISNLSATPLTGVSPHRIIVTALVSTTEEGSGNYTAGLYIDGVNVQNRTVRVTGPGSVLVSFTADISEPGEHQVTVNSLSPVTVRVLRPATFIVDSLTVSPSTGVIPFRVNASVRVTNIGDIAGNYTARLYIDGVNVQNRTVNVPAGGDVTVSFTYNITQRGNHTVWIDNPPGINVNALKPATLEIRSFSVTPGSAVGSVNANVSAEIENSGDLEGEFSIPFYLNGSLIRNETIRLGPGERGNINFQQYLSGPGVYTFSLGNLRNSTVYVNPARRKYSFTFRNTGKYTTTVTYYVTVYSSTGAKLGYRTFKFTLKPGRSYSATIGYYPYDARIVTTRKIYNPSRYTRTIKLSETFRADTLSATLNYSNTIRGYRYVYIKKTFRAVNMRITVT | failed
MSDHVCQEGCRHHSHGEDSPEIQQEFQEGRRDFMRDFAVGGVLASAASLGISSSAFGQTMPKTGLTSGHATHYYIPASDKTVSWGFFSKSLKPVVELESGDFATIETLTHHSNDDASLMVKGDPGAESVFYWDSKRKNVDRRGMGPMDHKLGAGGGMGVHILTGPVAIKGAEPGDVLEVRIVDVALRPSANPEFKGKTFGSNVAANWGFHYNELIEEPKKREVVTIYELDATGERNWARAFYNYRWTPQKDPFGVVHPIVDYPGVPVDHSTISKNYNVLKNIRVPVRPHFGTMGLAPKEADLVNSVPPSHFGGNIDNWRIGKGATMYYPVSVAGGLFSVGDPHASQGDSEMCGTAIECSLTGTFQFILHKKADLPGTPLADLQYPLLETQDEWVLHGFSYANYLAELGPDAQNSIFSKSSLDLALKDAFRKMRHFLMQTQNLTEDEAVSLMSIGVDFGITQVVDGNWGVHAVVKKGIFPGRDV | not failed
MDKRRVRAIKTFGAAMETYLAHTRWADSTRAVRKHIIDRDILPVFQNRLLTEIQAEDLRILCNKVKERGAPATAVQIRDIVKQVYVYAIAHGEKVVNPADSVGPSSIALEHHHHHH | not failed
MKNLTSIRPNTSRPARLAALKQSFQDWNNTSDVMARLARRLSTTLSLEAQLSILAEEMTDMVPFDSLNYRHRIARQDFIFSTGMGGPHRCEYRLSLEGHQYGTLTLHRRQRFSEEELTGIEMMLSGAICHIRNACQFIAIEQTALTDSLTGIGNKRALDEALQRASAMADRHGAPWSLILCDLDHFKLINDNHGHVVGDHILARTAEKLEQALRNSDTVYRFGGEEFAILLPHTNEQEARDVADRIRGAIESIRVDGGETPLTVTASCGVAMHLTDEQPEQWLARADEALYRAKAAGRNCTRVFASIS | failed
MIIADNIKQFHSIRNSLIKQQKIGFVPTMGALHNGHISLIKKAKSENDVVIVSIFVNPTQFNNPNDYQTYPNQLQQDIQILASLDVDVLFNPSEKDIYPDGNLLRIEPKLEIANILEGKSRPGHFSGMLTVVLKLLQITKPNNLYLGEKDYQQVMLIKQLVKDFFINTKIIVCPTQRQPSGLPLSSRNKNLTSTDIEIANKIYEILRQDDFSNLEELTNKINSTGAKLQYIQKLNNRIFLAFYIGKVRLIDNFLKETGPSC | not failed
MTQHQTLPQTTEGAYHYQVIRRAIELIDQTDQPISLDEIAANMGMSPAHFQRVFSRWVGVLEHHHHHH | not failed
EIAVPTLFVHGYSGTANSFKGMINRLADDGIVTESLVMTVAADGSVSTTGSYDKFSHNPTIQVIFEDNKSSMVNQTQWIQNVMKELKNNYHIEKVDAVGHSMGGVSLTSYIEKVGSDKAYPVLENLVLIGAPLNGLVVGDNGVTAYDLTDEGPKQSSDRYSEFMKNKQKIPTNLQVLNIAGDMLDGTKSDGSVSVASALSGKFIFEGQAKSYEEKIFTGKKAAHSKLHENTDVDAKVANFLWGTEKVD | failed
GTPVSDAEEIKVKYGCALSELVSKDDTVNVPSVGGRPSRSLQRQTLSEVIEPRYSELMGLVNQTIDSVQAKLREEGIKHH | failed
SSEQIRRAPKVLLHDHLDGGLRPGTIVELARDAGYSGLPETDPDKLGIWFREAADSGSLERYLETFAHTCAVMQTRAALVRVAAECAEDLAADGVVYAEVRYAPEQHLEAGLSLEEVVEAVNEGFRAGERRAKEDGNRIRVGALLTAMRHAARALEIAELANRYRDAGVVGFDIAGAEAGFPPTRHLDAFEYLKRENNHFTIHAGEAFGLPSIWQALQWCGADRLGHGVRIIDDIQVREDGSVKLGRLASYVRDKRIPLELCPSSNLQTGAASSYADHPIGLLRRLHFRATVNTDNRLMSGTSMSREFEHLVDAFGYTLDDMAWFSVNAMKSAFIPFDERLAMINDV | failed
SLDVQRVGKAGLHRVDSKKQQTAAGVSFSEVMGKQRDEKAYERLQALMSKIDDQGKLLSETRTIEELRKYKELVKEFVGDAVELGLRLEERRGFNRRGRTKIYKIVKEVDRKLLDLTDAVLAKEKKGLDILNMVGEIKGLLINIYA | not failed
MESMVAPGEVLMSQAIQPAHADSRGELSAGQLLKWMDTTACLAAEKHAGISCVTASMDDILFEDTARIGQIITIRAKVTRAFSTSMEISIKVIVQDKFTGIQKLLCVAFSTFVAKPVGKEKVHLKPVLLQTEQEQVEHNLASERRKVRLQHENTFNNIMKESSRFSDSICNEEEGTATTMGTSVQSIELVLPPHANHHGNTFGGQIMAWMETVATISASRLCHGHPFLKSVDMFKFRGPSTVGDRLVFSAIVNNTFQNSVEVGVRVEAFDCQEWAEGQGRHINSAFLIYNAVDDQEKLITFPRIQPISKDDFRRYQGAIARRRIRLGRKYVISHKKEVPLSAQWDISKKGSLSNTNVEALKNLASKSGWEITTTLEKIKIYTLEEQDAISVKVEKLVGSPAHIAYHLLSDLTKRPLWDPHYISCEVIDQVSEDDQIYYITCSVVNGDKPKDFVVLVSRRKPLKDNNTYTVALRSVVLPSVPSSPQYIRSEVICAGFLIQAVDSNSCTVTYLNQMSDSILPYFAGNIGGWSKSIEEAAASCIKFIENATPDGLKSVL | failed
